Results taken from article PMC11320721.
One block for each substance: values may come before it.

How the values were obtained:
[1] = target: PZP domain of JADE1 (JADE1PZP), wild type (human) (UniProt Q6IE81); experiment: other fluorescence titration
[2] = target: Nucleosome core particle with 207 bp DNA (NCP207) (human) (UniProt P04908); experiment: fluorescence polarisation
[3] = target: Nucleosome core particle with 147 bp 601 DNA (NCP147) (human) (UniProt P04908); experiment: fluorescence polarisation

Chain of PZP domain of JADE1 (JADE1PZP), wild type (human) (Q6IE81 201-373): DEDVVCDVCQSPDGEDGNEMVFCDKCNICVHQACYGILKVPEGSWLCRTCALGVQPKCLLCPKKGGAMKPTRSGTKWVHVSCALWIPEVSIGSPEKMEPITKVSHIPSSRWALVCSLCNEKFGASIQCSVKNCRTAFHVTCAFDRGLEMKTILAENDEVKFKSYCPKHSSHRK
Chain of PZP domain of JADE1 (JADE1PZP), wild type (Q6IE81 201-373): as above

- Kd of the first site (two-site binding model) [1]: 0.3 µM
- Kd of the second site (two-site binding model) [1]: 25 µM
Substance: H3_(1–31) peptide (residues 1–31 of H3) (from UniProt P68431 2-32)

- Kd [1]: 63 µM
Substance: H3_(15–34) peptide (residues 15–34 of H3) (from UniProt P68431 16-35)

- fold decrease in binding against wild type JADE1PZP [2]: 55 fold
Substance: K331A/R334A/K367A (KRK) mutant of JADE1PZP (from UniProt Q6IE81 201-373) (domain or fragment)

- S1/2 [2]: 0.5 µM
- S1/2 [3]: 2.8 µM
Substance: PZP domain of JADE1 (JADE1PZP), wild type (from UniProt Q6IE81 201-373) (domain or fragment)
